Laboratory results as given in the DeepSol protein solubility set.

test: soluble on expression in E. coli; label from the status in PepcDB or PDB records

**Q.** Which “soluble on expression in E. coli” value does the source give for “MLSLDQIPHHIRHGIVGSRLIQIRGRVTQVTGTLLKAVVPGVRIGELCYLRNPDNSLSLQAEVIGFAQHQALLIPLGEMYGISSNTEVSPTGTMHQVGVGEHLLGQVLDGLGQPFDGGHLPEPAAWYPVYQDAPAPMSRKLITTPLSLGIRVIDGLLTCGEGQRMGIFAAAGGGKSTLLASLIRSAEVDVTVLALIGERGREVREFIESDLGEEGLRKAVLVVATSDRPSMERAKAGFVATSIAEYFRDQGKRVLLLMDSVTRFARAQREIGLAAGEPPTRRGYPPSVFAALPRLMERAGQSSKGSITALYTVLVEGDDMTEPVADETRSILDGHIILSRKLAAANHYPAIDVLRSASRVMNQIVSKEHKTWAGDLRRLLAKYEEVELLLQIGEYQKGQDKEADQAIERMGAIRGWLCQGTHELSHFNETLNLLETLTQ” here?
**A.** The value was “not soluble”.

**Q.** For “MFNLGSMFNLGPSEPVVGKASILLECPAGKAFKFIGENLFLNYPRWSPEVKELEQLTHGPVCLGTIARQVRVDQGHRSESKFRITIYEPDRRVAFAGISDPFRCVYELLDEQNSGSTRLLFKFELLEIQMIMRPFEPMIRTAVQDGAERTVQNIKRLVESEPGALEHHHHHH”, which “soluble on expression in E. coli” value is on record?
**A.** The value was “soluble”.

**Q.** Which “soluble on expression in E. coli” value does the source give for “MKLIKNGKVLQNGELQQADILIDGKVIKQIAPAIEPSNGVDIIDAKGHFVSPGFVDVHVHLREPGGEYKETIETGTKAAARGGFTTVCPMPNTRPVPDSVEHFEALQKLIDDNAQVRVLPYASITTRQLGKELVDFPALVKEGAFAFTDDGVGVQTASMMYEGMIEAAKVNKAIVAHCEDNSLIYGGAMHEGKRSKELGIPGIPNICESVQIARDVLLAEAAGCHYHVCHVSTKESVRVIRDAKRAGIHVTAEVTPHHLLLTEDDIPGNNAIYKMNPPLRSTEDREALLEGLLDGTIDCIATDHAPHARDEKAQPMEKAPFGIVGSETAFPLLYTHFVKNGDWTLQQLVDYLTIKPCETFNLEYGTLKENGYADLTIIDLDSEQEIKGEDFLSKADNTPFIGYKVYGNPILTMVEGEVKFEGDK” here?
**A.** The value was “not soluble”.

**Q.** For “MGSDKIHHHHHHMHFFIRIKEKYIECIRGNINDMQTADYSMVSEIIGNPQRLGMLVFLMDGRFRTVNEVTKATNLKPNTVSLYLSHFEKISWLDDYFQGRWHYYRLANSEVASLIEKILVLSPKKKITYFNLNEEEKLLHTGRSCYNHLAGQLGVQLLCSMKTLNWIRQDGSAFQLTDKGQSNLNNALEIKFSFQEQKSWDFILPCMDWSERQLHLKGIVGKKILGAMLDKEWLYRPNRTRALALTYKGKEKFGDFLQIRA”, which “soluble on expression in E. coli” value is on record?
**A.** The value was “not soluble”.

**Q.** Which “soluble on expression in E. coli” value does the source give for “MGSDKIHHHHHHMFKRKVISFDIGSKNIKLVEGKCDGDKVIVTNMDMIETPKNSMNDGSIVDINLIAEAVRKLIDKVSTRTKNVVFTSQSTSIITRTVEIPWAKEKDMKSMIKYDIEQYLPIDLNEYIIKHKVIDEFQKEEVKMVRANVVVYPKKMAKAYWSLVEELELKPMALEVSLSAMEKILSSKDIITINEKDYQKEDTIAIVDIGSDEIEMNIIANGNLEFTRVLMGGGAYIDSSISNELSVDMDVAEEKKIIFGDLTLDNFSGEKQIVNEAMKNVIDRWNSEILRMLDYFKNKNKDKQIKKVYVHGGTSQIPGLCQYMKNSLGISVELIKNISTVSLDKKLEDKDITNYINAIGSIIM” here?
**A.** The value was “not soluble”.

**Q.** With “MGSDKIHHHHHHMITESRQMLDKRNRPLRDLRISVTDRCNFRCTYCMPAELFGPDYPFLKKEELLSFEELERLATLFVTRFGVEKIRLTGGEPLMRKDMPELIKKLARIPGIRDIAMTTNGSLLPVYAKRLKEAGLKRVTISLDSLEDERFKKINGRGVSVSKVLEGIEAAKQAGLGVKINMVVQKGVNEKDILPMARYFKEKGHILRFIEFMDVGNTNQWEKKDVMTKAEIIDLINKHMPVEPIAPNYIGEVASRFRYLDGSGEIGVISSVSDAFCGSCNRARLSARGELFTCLFASSGFDLRAPVRQELSDDELSEMIGTVWKNRIDQYSVDRTLSKASGKKKVEMSYIGG” as the sequence, how does the “soluble on expression in E. coli” value read?
**A.** The value was “not soluble”.

**Q.** Which “soluble on expression in E. coli” value does the source give for “MNKIALFVDVQNIYYTCREAYQRQFNYRKLWQHLSTQGEIVSAVAYAIHRGDDGQLKFQDALRHIGFELKLKPFIQRSDGSAKGDWDVGITIDVLDAAPNVDTVILLSGDGDFAILLEKITQKYGVKAEVYGVPQLTAKALMDATTQFNPIDDVLLL” here?
**A.** Its value is “soluble”.

**Q.** For “MKTLLPTSTAGSLPKPSWLAQPEKLWSPWKLQDEELIEGKRDALRLSLNDQQQAGIDIVSDGEQTRQHFVTTFIEHLSGVDFEKRETVRIRNRYDASVPTVVGAVSREKPVFVEDAKFLRQQTRQPIKWALPGPMTMIDTLYDSHYKSREKLAWEFAKILNQEARELEAAGVDIIQFDEPAFNVFFDEVNDWGVATLEKAIEGLKCETAVHICYGYGIKANTDWKKTLGSEWRQYEEAFPKLQKSNIDLISLECHNSRVPMDLIELIRGKKVMVGAIDVATSAIETPEEVADTLRKALRFVDADKLYPCTNCGMAPLSRQVARSKLNALGAGAEIIRRELSVAAALEHHHHHH”, which “soluble on expression in E. coli” value is on record?
**A.** Its value is “not soluble”.

**Q.** For “MGSSHHHHHHNYNIPTTENLYFQGHMNIGLLEALDQLEEEKGISKEEVIPILEKALVSAYRKNFGNSKNVEVVIDRNTGNIKVYQLLEVVEEVEDPATQISLEEAKKIDPLAEVGSIVKKELNVKNFGRIAAQTAKQVLIQRIRELEKEKQFEKYSELKGTVTTAEVIRVMGEWADIRIGKLETRLPKKEWIPGEEIKAGDLVKVYIIDVVKTTKGPKILVSRRVPEFVIGLMKLEIPEVENGIVEIKAIAREPGVRTKVAVASNDPNVDPIGACIGEGGSRIAAILKELKGEKLDVLKWSDDPKQLIANALAPATVIEVEILDKENKAARVLVPPTQLSLAIGKGGQNARLAAKLTGWKIDIKPIMNL”, which “soluble on expression in E. coli” value is on record?
**A.** Its value is “soluble”.

**Q.** Which “soluble on expression in E. coli” value does the source give for “MSLTNPAPIEAPLPKGVTDFLPEKADKIGYIEGKIRRVFELWGFRRIITPLLEFQDVMAAGLGEDLKERTFRFDDRQTGKLLAIPSDITPQVARIVATRMRGCPLPHRLYYIGRVLRHVELQSGRSRETFQAGVELIGLDSPEADAEMVAMAVEILKGLGFEEFKVDLGHTGFIRGVMAASGLGGDARRRLQEAVGKKDSSAVRAILETEPVADRIKEELAALPRLFGGREVLAEAARVATSDSSRRALDNIAQVLDILDIHGVSDHLTLDLGEIRGLDYHSGLTFEGFVTGIGEAVCSGGRYDNLTQRYGYPAPATGFAFNILALLNALEKRPDVEASKTRDLLIFNLKDDRREALEIAQHLRALGYSTARDIIHRDFNDSLDYARRMNILRMMVIGGDYCAADEAYVVRVADKRGTAVKKADLMRNDFSLNTEGHHHHHH” here?
**A.** Its value is “soluble”.

**Q.** Which “soluble on expression in E. coli” value does the source give for “SKDPAFTALLTTQLQVQREIVNKHNELRKAVSPPASNMLKMEWSREVTTNAQRWANKCTLQHSDPEDRKTSTRCGENLYMSSDPTSWSSAIQSWYDEILDFVYGVGPKSPNAVVGHYTQLVWYSTYQVGCGIAYCPNQDSLKYYYVCQYCPAGNNMNRKNTPYQQGTPCAGCPDDCDKGLCTNSCQYQDLLSNCDSLKNTAGCEHELLKEKCKATCLCENKIY” here?
**A.** Its value is “soluble”.

**Q.** For “MKAANSGRTAAALECFERVVKLQSTPVNWSYLAFCVARERQQFEHATRLCEEAVRREPRSSVLYLNLGKVYLLSGRKDDAIRTFRQGLLYERNTLIESELRRLGLRKPPVLNFLAREHPVNKYLGIMLKKLKIRLEHHHHHH”, which “soluble on expression in E. coli” value is on record?
**A.** Its value is “not soluble”.

**Q.** For “MSLTISTQCSKCEKIYDDNKRKICSGKCGHSICESCFDRKSSDICSICNQIDSFGVKCINRSAMEMVEMKKNAFSFSDIWIFKFDPKEHFNGPCSKCNDYSTMLRVCTNSAVQAGLLVKTGENSFDLTPHTTDELLETIILRIKSIGICADCVINNGLKEDVVMMKNIKRLYDIAKALNYLSMFSFSMKQIEREIEEFKNKKNQLRFYNMYYHFVKETYPEIMKWLKNDLVRISAPPCWQVLLKIVSIMTQAAQSLFLKSAERELQISKEKLRDSKGNSEWQKTVDKLENFRDFLEINHVDAEIQPIDMWNFFVLCTTEELDKVTAIINRNLKIQGKSSRETLKEVYYLTRDVRKTLPFQIPERFAGFIDRFIRVLVGENLDEEQALEIQSTT”, which “soluble on expression in E. coli” value is on record?
**A.** Its value is “not soluble”.

**Q.** For “MFNEKDQLAVDTLRALSIDTIEKANSGHPGLPMGAAPMAYTLWTRHLNFNPQSKDYFNRDRFVLSAGHGSALLYSLLHVSGSLELEELKQFRQWGSKTPGHPEYRHTDGVEVTTGPLGQGFAMSVGLALAEDHLAGKFNKEGYNVVDHYTYVLASDGDLMEGISHEAASFAGHNKLSKLVVLYDSNDISLDGELNKAFSENTKARFEAYGWNYLLVKDGNDLEEIDKAITTAKSQEGPTIIEVKTTIGFGSPNKAGTNGVHGAPLGEVERKLTFENYGLDPEKRFNVSEEVYEIFQNTMLKRANEDESQWNSLLEKYAETYPELAEEFKLAISGKLPKNYKDELPRFELGHNGASRADSGTVIQAISKTVPSFFGGSADLAGSNKSNVNDATDYSSETPEGKNVWFGVREFAMGAAVNGMAAHGGLHPYGATFFVFSDYLKPALRLSSIMGLNATFIFTHDSIAVGEDGPTHEPIEQLAGLRAIPNMNVIRPADGNETRVAWEVALESESTPTSLVLTRQNLPVLDVPEDVVEEGVRKGAYTVYGSEETPEFLLLASGSEVSLAVEAAKDLEKQGKSVRVVSMPNWNAFEQQSEEYKESVIPSSVTKRVAIEMASPLGWHKYVGTAGKVIAIDGFGASAPGDLVVEKYGFTKENILNQVMSL”, which “soluble on expression in E. coli” value is on record?
**A.** Its value is “not soluble”.

**Q.** With “MGSDKIHHHHHHMAKYPNTFHRASLMKQMTFADAEYAGKRKHTRRERFLIEMDQVVPWKGLIALIEPHYPKGEGGRPAYPLMAMLRIHLMQNWFGYSDPAMEEALYETTILRQFAGLSLDRIADETTILNFRRLLEKHELAGGILQVINGYLGDRGLMLRQGTVVDATIIHAPSSTKNKDGKRDPEMHQTKKGNQYFFGMKAHIGVDAESGLVHSLVGTAANVADVTQVDQLLHGEETYVSGDAGYTGVDKRAEHQDRQMIWSIAARPSRYKKHGEKSLIARVYRKIEFTKAQLRAKVEHPFRVIKRQFGYTKVRFRGLAKNTAQQATLFALSNLWMVRKRLLAMGEVRL” as the sequence, how does the “soluble on expression in E. coli” value read?
**A.** Its value is “not soluble”.

**Q.** For “MAGYVGDVAIAYDRDLGHVLFEQYASDIARRTAGKPVRDVLEVASGTGIVTRQLRNVLPGDAQLTAIDISDSMMEVARTKFLPHEQVTFQVANAVALPFDDRAFDTVVCQFGVMFFDKDKAFQETHRVLRQGGRYLFSVWDSRDYNPYASLTFEVMKQFFPSDPPRFLESTVSSFEIDPVKERLIRAGFEQISISVQRRIYDIPDIRAFARGLIFSPIINEIRERGEVDPDDIVEALVKIFIGEYGSNPTRFPMQAILFETEKPLEHHHHHH”, which “soluble on expression in E. coli” value is on record?
**A.** The value was “not soluble”.

**Q.** Which “soluble on expression in E. coli” value does the source give for “MQKIDEKLQLMNTIAKIYRGSIKEFNNRLGKLMNLSYLDFSILKATSEEPRSMVYLANRYFVTQSAITAAVDKLEAKGLVRRIRDSKDRRIVIVEITPKGRQVLLEANEVLRNLVNEMLSDVENVEELLEGLNKILSRIGSSKD” here?
**A.** The value was “soluble”.

**Q.** Which “soluble on expression in E. coli” value does the source give for “MPGAPSFIALDWGTSSLRAWRFGESPNPQEKREFPWGIMKLPSQAATREDAFHDTFLRVCGDWLAQTPCPVLACGMLGSAQGWQSAAYLPCPVTLEGLAKQLTPVIHQQQTMLHIIPGVIKEGEMPEVMRGEETQIFGAISMEPALQNAIHQGMPVLIGLPGTHAKWAVVENNTITDFRTFMTGELFDVLSRHSILGATMHPGDEPHWDAFTHGLTAAQEHHQTGLLSTLFSTRSRLLTSNLTSSSQGDYLSGLLIGHELCGLASSLLRDLPATTPIALIGSANLNSRYSQAFSHVFPGRQIHAIPNATEQGLWRIAHAAGLLSTNARECTHAI” here?
**A.** Its value is “not soluble”.

**Q.** With “MDTFGLIQLAELIYEYCGIDFFKNLSSLESKISERLKELGLSCWEYGGYLRVEPKEWDTLIDLITVNETYFFREENLLEEFQKVILPKYKDRTPNNPLRIWSSACSSGEEPYTLAILSEETGLFETGAVEIIASDIDKKVLEKARRGLYNKKSFSFRTMPKEILDKYFISFGDDYKVKDSIRAMVDFRRVNLLDENKLEKVGEVDIVFCRNVLIYFDTKAINKVINSLYKVLRAGGYLFLGHAETITGMNTGFETIYTPSAFYYRKGERH” as the sequence, how does the “soluble on expression in E. coli” value read?
**A.** The value was “not soluble”.
